Target: T1, BMC11 (uncultured bacterium (metagenome))
T1 chain: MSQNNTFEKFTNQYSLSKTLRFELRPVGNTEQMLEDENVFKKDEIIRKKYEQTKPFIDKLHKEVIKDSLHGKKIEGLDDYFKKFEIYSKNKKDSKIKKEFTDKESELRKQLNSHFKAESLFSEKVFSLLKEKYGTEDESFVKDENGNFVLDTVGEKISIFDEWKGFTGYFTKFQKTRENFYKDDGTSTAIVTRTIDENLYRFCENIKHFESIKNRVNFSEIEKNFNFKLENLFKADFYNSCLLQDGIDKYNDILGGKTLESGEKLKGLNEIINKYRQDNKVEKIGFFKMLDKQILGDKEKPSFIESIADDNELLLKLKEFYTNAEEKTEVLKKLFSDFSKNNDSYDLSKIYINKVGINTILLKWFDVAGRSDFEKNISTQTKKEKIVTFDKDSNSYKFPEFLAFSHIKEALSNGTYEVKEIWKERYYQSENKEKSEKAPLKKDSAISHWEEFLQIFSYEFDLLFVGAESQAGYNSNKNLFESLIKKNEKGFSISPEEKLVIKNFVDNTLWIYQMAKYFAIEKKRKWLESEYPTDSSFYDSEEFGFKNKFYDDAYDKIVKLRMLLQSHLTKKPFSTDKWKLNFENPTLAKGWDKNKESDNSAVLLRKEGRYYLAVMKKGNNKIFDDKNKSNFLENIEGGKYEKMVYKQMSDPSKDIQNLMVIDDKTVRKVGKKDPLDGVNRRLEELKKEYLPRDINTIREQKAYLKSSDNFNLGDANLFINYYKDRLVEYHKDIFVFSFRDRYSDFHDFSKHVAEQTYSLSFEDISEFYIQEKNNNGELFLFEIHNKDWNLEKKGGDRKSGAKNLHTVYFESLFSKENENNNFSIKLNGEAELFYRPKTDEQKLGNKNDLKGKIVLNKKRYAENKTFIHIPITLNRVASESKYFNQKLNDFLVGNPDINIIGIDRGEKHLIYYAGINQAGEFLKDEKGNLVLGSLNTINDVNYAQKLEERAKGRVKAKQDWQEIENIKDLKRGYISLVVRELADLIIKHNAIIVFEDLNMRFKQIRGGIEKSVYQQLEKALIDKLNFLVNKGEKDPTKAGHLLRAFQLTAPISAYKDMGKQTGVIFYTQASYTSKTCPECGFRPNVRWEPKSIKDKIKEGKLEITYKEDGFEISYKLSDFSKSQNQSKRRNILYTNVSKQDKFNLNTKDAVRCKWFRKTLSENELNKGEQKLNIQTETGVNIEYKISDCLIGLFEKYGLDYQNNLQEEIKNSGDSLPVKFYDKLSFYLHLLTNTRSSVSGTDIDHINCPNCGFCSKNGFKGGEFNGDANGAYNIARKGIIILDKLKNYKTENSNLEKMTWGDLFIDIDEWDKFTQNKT
Experiment: cell_activity; PAM not stated; E. coli depletion, 30 C
Procedure, shortened: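 E. coli carrying arabinose-induced (0.2%) BMC nuclease, grown at 30° C., made electrocompetent and electroporated with 50-100 ng plasmid carrying gRNA against malQ. Transformants plated on selective M9-glucose agar with kanamycin/ampicillin (± nourseothricin), and growth scored after 48 h at 30° C.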

B1: malQ gRNA (BMC stem-loop + 24 nt spacer) ; malQ protospacer (ssRNA ; dsDNA)
RNA: GAUUUCUACUAUUGUAGAUGUGGCGGUACGUUGAUGCAUCGCG
DNA 1: GTGGCGGTACGTTGATGCATCGCG
DNA 2: CGCGATGCATCAACGTACCGCCAC
  activity: > 99.9 % colony reduction

From patent US20250277199, “NOVEL CRISPR-CAS NUCLEASES FROM METAGENOMES” (Brain Biotech AG, published 2025)
